Measured values from doi:10.1101/2025.01.14.632894 (bioRxiv, 2025).

B1: CCDC6-RET fusion product (CCDC6 residues 1-101 fused to RET residues 713-1072), wild type, apo (un-phosphorylated) state (enzyme, human, UniProt Q16204 1-101, looked up)
chain: MADSASESDTDGAGGNSSSSAAMQSSCSSTSGGGGGGGGGGGGGKSGGIVISPFRLEELTNRLASLQQENKVLKIELETYKLKCKALQEENRDLRKASVTIEDPKWEFPRKNLVLGKTLGEGEFGKVVKATAFHLKGRAGYTTVAVKMLKENASPSELRDLLSEFNVLKQVNHPHVIKLYGACSQDGPLLLIVEYAKYGSLRGFLRESRKVGPGYLGSGGSRNSSSLDHPDERALTMGDLISFAWQISQGMQYLAEMKLVHRDLAARNILVAEGRKMKISDFGLSRDVYEEDSYVKRSQGRIPVKWMAIESLFDHIYTTQSDVWSFGVLLWEIVTLGGNPYPGIPPERLFNLLKTGHRMERPDNCSEEMYRLMLQCWKQEPDKRPVFADISKDLEKMMVKRRDYLDLAASTPSDSLIYDDGLSEEETPLVDCNNAPLPRALPSTWIENKLYGRISHAFTRF
modifications: activation loop Tyr 900 and c-terminal Ser 1034 showed high levels of phosphorylation in the basal state
B2: CCDC6-RET lacking the c-terminal segment of RET (CCDC6 1-101 fused to RET aa 713-1013) (enzyme, human, UniProt Q16204 1-101, looked up)
chain: MADSASESDTDGAGGNSSSSAAMQSSCSSTSGGGGGGGGGGGGGKSGGIVISPFRLEELTNRLASLQQENKVLKIELETYKLKCKALQEENRDLRKASVTIEDPKWEFPRKNLVLGKTLGEGEFGKVVKATAFHLKGRAGYTTVAVKMLKENASPSELRDLLSEFNVLKQVNHPHVIKLYGACSQDGPLLLIVEYAKYGSLRGFLRESRKVGPGYLGSGGSRNSSSLDHPDERALTMGDLISFAWQISQGMQYLAEMKLVHRDLAARNILVAEGRKMKISDFGLSRDVYEEDSYVKRSQGRIPVKWMAIESLFDHIYTTQSDVWSFGVLLWEIVTLGGNPYPGIPPERLFNLLKTGHRMERPDNCSEEMYRLMLQCWKQEPDKRPVFADISKDLEKMMVKRR

Experiments:
mass photometry = biological target: the molecule itself; assay: mass photometry
SAXS = biological target: the molecule itself; assay: SAXS

Protein	stoichiometry N (mass photometry)	binding result (SAXS)
B1	2	
B2		binds
